The text below walks through data of the DeepSol protein solubility set.

The nature of the series: soluble on expression in E. coli; label from the status in PepcDB or PDB records.
With “MAHHHHHHMTHMGRAADGYQRLGNNYPQVTPSSHFAAASPDPVLATPIQTRPLQGNPFHPLLWNGSATSSTGAAGVQASLSRKSRTRLTSGVTAGSSSGPLSSTLSLSTPLSSCASAAASGEGRFQRRVSRDRFGACSTPTSSSTTAQVLQLQRPAQSPMPPLSSSPPASVGLTAAAARGAVTPANLGRERKVAAVNYNALFQQELQQQQRQGSDTGAWPTPSPSPPSGALQYAQLPPSASADVHGTGAHSGSGEGVSEALSSSVTASSVQAGTAEGPLPPDVRRIIAQSCTSSSSSSGADTNAIIDAAEQQARRLISTGRRVKVYREELTTAEEERNDLSAAVEERRLVRSVLQSEVDDINARIQALLQERALAEAQLHAQDDAAAREARKLTEAQDRVTVLRKTIEGIVEETSAARLMLRQIVPSLHIENYY”, the “soluble on expression in E. coli” value is given as “not soluble”.

Consider “MGSDKIHHHHHHMENTSYIALSRQTALWRQLDVVSNNLANMNTNGYQAEQTLFSEYLMNTRDSHFRLPEKLAYTQDAGTYRDLTAGPLEHTGNPLDLAINGEGYFEVEDGAGPAYTRGGRFTLDAEGKVVTADGRPLMTDAGTPLVIAPNEGEVTISATGTVSTENGPVGKLRLVSFEDEQKLRRIGGGLFDSGDQQANPITEPRIEQGMIEKSNVNPVVEMTRMIQVQRSYEAANKLIESENDRQLNAYAVLSGTK”, for which the “soluble on expression in E. coli” value is on record as “not soluble”.

“GPGSMSEKEGKVIPETNGMKRPRFDPVKLGLPEEFTLTDYTRLKGCSCKVPQPELLALLQSVSTTPGRRDVGMDCSIVKLQHKDETGKPLYMVSTTDFFFPSVEDPYLQGQIGAANVLSDLYSTGIDRCDTVLMLLAASTDMDKTEREVCTQEMMKGFVDHVRLAGSDVTGGQTVMNPWPLIGGIATSVVAESQMIRPTGLQPGDILVLTKPLGCQIAVNLKQWLRRPSPIFEEQIQGKMDSEEIEELYNAAADGMKRLNRMAAALMHSHGAHGATDVTGFGILGHAKNLGSAQKADVCLVLDSLPMYRGAVKASKLMGDKYRLFEGYAAETSGGLLVAFGTREEAEGYIRELYETDGEPAWVVGRVVRREGSAPYALLQKDYKIIEVGAKVNDKII”: the “soluble on expression in E. coli” value is “soluble”.

With “MAGHSIPHFQNDGGHSVIEIGVKEFMCTGASVPFDHPHIFIDMGDDNEKVCSYCSTLYRYNPSLKAEQTNPPGCVFHVKAA”, the “soluble on expression in E. coli” value was “not soluble”.

As for “TNGFLKILGLGSGHDDKDKLSSEELRTVVHEAGGLIPRRHQDMLISILDLEHVTVNDIMVPRSEITGIDINDDWKSISRQLTHSPHGRIVLYRDQIDEVVGMLRLRESYRLMLEKNEFTKETLLRAADEIYFIPEATPLNSQLLKFQRNKERIGLVVDEYGDIQGLITLEDILEEIVGEFT”, the “soluble on expression in E. coli” value is recorded as “not soluble”.

“MKKSITTLDLNLLLCLQLLMQERSVTKAAKRINVTPSAVSKSLAKLRAWFDDPLFVNSPLGLSPTPLMVSMEQNLAEWMQMSNLLLDKPHHQTPRGLKFELAAESPLMMIMLNALSKQIYQRYPQATIKLRNWDYDSLDAITRGEVDIGFSGRESHPRSRELLSSLPLAIDYEVLFSDVPCVWLRKDHPALHQTWNLDTFLRYPHISICWEQSDTWALDNVLQELGRERTIAMSLPEFEQSLFMAAQPDNLLLATAPRYCQYYNQLHQLPLVALPLPFDESQQKKLEVPFTLLWHKRNSHNPKIVWLRETIKNLYASMA”: the “soluble on expression in E. coli” value is “soluble”.

“MGSSHHHHHHGKTIFVIVPTNEEQVAFLEALAKQDELNFDWQNPPTEPGQPVVILIPSDMVEWFLEMLKAKGIPFTVYVEEGGSENLYFQGGGGGGCCSLLFFVYIAFSLIHTLHHLFLFSECNISADERMDVPSEDYDVSIMIKAIHEVQDVLTSRQFATFSEVDTEIGKTLKRYEAFGDGFERFHVNLTKDALQSNDLQKSLKDMDKRCQDRLRDCASSQKDQINDILPFIRNTSSILVHGSGNLLALTIACSIQEHEGVRFYICEGRPARKGYPHGSGEQLLEKVLATPEGMRLKDKLHKYCTIVPDSGVSSVMNSVDFVIMGAYCVTEHGGLVHSTGSLQIAIVAAFRNVPCYVLCETFKFAHIFPLSTDDLKQPENGAGEVVPLVEFVPPSMITLIFSEQGIMPPSAVADEMFRFHTAPSAPGKRR”: the “soluble on expression in E. coli” value is recorded as “not soluble”.

In the case of “MSLGRKIKKETMIFPRYHQLRAVRELEDAARTEGPGHNYLVEHSAGSGKSNTIGWLAHRLASLHNESDHKVFDSVIVITDRRVLDRQLQDTIYQFEHRQGVVQKIDEDSRQLAEALTNSVPIIISTLQKFPFVARQLARMAEERREGADGILPTRRCAVIIDEAHSSQSGETATDLKEVLGGHVLREEAARYAVDEGVDNLDELYRSMAKRGRQTNLSFFAFTATPKHKTLAVFGRDEAGKAGQPFHRYTMSQAIEEGFIMDVLKNYTTYATYYKLVKASEDDPNVERKQAAKALARFMRLHPYNIAQKTEVMVEHFNAVTRHKVGGKAKAMVVTGSRLEAVRYKLAFDAYIREKGYSWIKTLVAFSGEVVDDELPGKTWTEVGMNGGIKEGVLPEKFDSSEYQVLLVAEKYQTGYDQPLLHTMYVDKRLAGIQAVQTLSRLNRMHPLKEDTFVLDFVNDRQEIKEAFKQYHEGAEMGEEADPNQMYAIKAELDASGIYLLEEMQRFIGIYFKPKQRQSPADHQAMNAALDPAVDRFRAVQEEDEEQAELWRGKLSAFRNLYAFLSQVAPYQDSDLERLYTFLRFLSPKLPKRTTGQRYSFDDEVRLEYYRLQKISEGSISLRDGKAELLDGPGEVGSGARHDEDVPLSSLIDVINERFGTDFTDADQLFFDQIIEAAMEDGSLLEAAAVNPEEKFALLFAGLLETLFIERMEQNEDIFARFMNERDFQSLVSKWISGKVYARLREGHHHHHH”, the “soluble on expression in E. coli” value is reported as “not soluble”.

With “MERMRSIWKGSIAFGLVNVPVKVYSATEDHDIRFHQVHAKDGGRIKYNRVCSECGNVVQYADIDKAYDSDDGVRVVLTDDDFGKLPAAEKHEIPVLQFVPTEQIDPILFEKSYFLEPDSSSPKAYVLLATALENSDRTALVHFTLRQRTRLAAMRSRDGVLVIQTLLWPDEVRVAEFSSLDGVDK”, the “soluble on expression in E. coli” value was “not soluble”.

Take “MKLNSPSRIHMGLIDLNGELGRVDGGVGVALDYPNFQIEGKESSEIELDSKIEIDEKDRENLESRIKNAARNVLDIIGEDGISLKINEAILSHSGLGSGTQVSLSTGKITSLVYGQDLNAETLAKITGRGGTSGIGVAAFETGGFIVDGGHTFGEGKDKIDFRPSSASKDVKPSPVLFRHDFDWDIVLTIPKGEQVCGDREVDIFRKFCPVPSEDVQKICRLVLMKMMPAVIEKDFNSFGMAVNELQNLGFKRAEVGLQKESLKQLLSKLQDVSYSGISSFGPTIYSLGDKDTITEISNEIFDKFGIDGEIISTKANNSGYEIIK”: the “soluble on expression in E. coli” value is “not soluble”.

Turning to “GPLGSKEQGVVRKAGWLFFKPLVTLQKERKLELVARRKWKQYWVTLKGCTLLFYETYGKNSTEQNSAPRCALFAEDSIVQSVPEHPKKEHVFCLSNSCGDVYLFQATSQTDLENWVTAIHSACASLFAKKHGKEDTVRLLKSQTRSLLQKIDMDSKMKKMAELQLSVVSDPKNRKAIENQIRQWEQNLEKFHMDLFRMRCYLASLQGGELPNPKSLLAATSRPSKLALGRLGVLSVSSFHALVCSRDDSTLRKRTLSLTQRGK”, the “soluble on expression in E. coli” value is “soluble”.

With “MDGMGTLTRYLEEAMARARYELIADEEPYYGEIPDLPGVWATGKSLKECEANLQAALEDWLLFLLSRGETPPPLGEVRIELPHGEAA”, the “soluble on expression in E. coli” value is recorded as “soluble”.

As to “METQEKKFVPASKQIPTVNSGWLDRELGEAMSEAVRACLAHGKQSEITVKLKIQPQNIQSGTVKISHDVATKLPKEKREGGIVFATPDGNIQADDPAQGKLKLKQVSNTSSTLKMVRSN”, the “soluble on expression in E. coli” value is on record as “not soluble”.

For “MWLPTPLGPLWLEVSPLGVRRLEPALYPRGPEAEGALALRVREAVQAYFAGERPDFLDLPLDYTGLSPARLRLYERVRLVPYGRTVSYGALGRELGLSPRAVGAALRACPFFLLVPAHRVIHADGRLGGFQGQEGLKLWLLRFEGAL”, the “soluble on expression in E. coli” value was “soluble”.

In the case of “MTQVRETVSFKAGDVILYPGVPGPRDRAYRVLEGLVRLEAVDEEGNALTLRLVRPGGFFGEEALFGQERIYFAEAATDVRLEPLPENPDPELLKDLAQHLSQGLAEAYRRIERLATQRLKNRMAAALLELSETPLAHEEEGKVVLKATHDELAAAVGSVRETVTKVIGELAREGYIRSGYGKIQLLDLKGLKELAESRGQGR”, the “soluble on expression in E. coli” value was “soluble”.

In the case of “MAVNLYDYANQLEQALRESEEYKAIKEAFANVKANEESKKLFDEFRETQINFQQKQMQGEEIAEEDLQKAQEQAQAIEKDENISALMNAEQKMSQVFQEINQIIVKPLDEIYAD”, the “soluble on expression in E. coli” value is recorded as “not soluble”.

In the case of “MVKQLKFSEDARQAMLRGVDQLANAVKVTIGPKGRNVVLDKEFTAPLITNDGVTIAKEIELEDPYENMGAKLVQEVANKTNEIAGDGTTTATVLAQAMIQEGLKNVTSGANPVGLRQGIDKAVKVAVEALHENSQKVENKNEIAQVGAISAADEEIGRYISEAMEKVGNDGVITIEESNGLNTELEVVEGMQFDRGYQSPYMVTDSDKMVAELERPYILVTDKKISSFQDILPLLEQVVQSNRPILIVADEVEGDALTNIVLNRMRGTFTAVAVKAPGFGDRRKAMLEDLAILTGAQVITDDLGLDLKDASIDMLGTASKVEVTKDNTTVVDGDGDENSIDARVSQLKSQIEETESDFDREKLQERLAKLAGGVAVIKVGAASETELKERKLRIEDALNSTRAAVEEGIVAGGGTALVNVYQKVSEIEAEGDIETGVNIVLKALTAPVRQIAENAGLEGSVIVERLKNAEPGVGFNAATNEWVNMLEEGIVDPTKVTRSALQHAASVAAMFLTTEAVVASIPEKNNDQPNMGGMPGMM”, the “soluble on expression in E. coli” value is given as “not soluble”.

Consider “SEITETLCIFIKTPYISEWSLNNAIINAKKYNLNLKVIKIDKIIKNVPERCYLCKKMFFEILTKEKEKYNYDVVVDGTNYDDLFEDRPGLRAKEEFNIGSPFADFKIGKKDILEIAKELNINIPPKET”, for which the “soluble on expression in E. coli” value is listed as “not soluble”.

As for “MEFTGDLGLGHVTIRASTSSNIRSEVLMEGEYGFIGKSIPTDNPAGQRIIFCGGEGTSSTTGAQITLYGANNTDSRRIVYNGDEHLFQSADVKPYNDNVTALGGPSNRFTTAYLGSNPIVTANGERKTEPVVFDDAFLDAWGDVHYIMYQWLDAVQLKGNDARIHFGVIAQQIRDVFIAHGLMDENSTNCRYAVLCYDKYPRMTDTVFSHNEIVEHTDEEGNVTTTEEPVYTEVVIHEEGEEWGVRPDGIFFAEAAYQRRKLERIEARLSALEQK”, the “soluble on expression in E. coli” value was “soluble”.

On to “MKTPAILLLLFLFMMSLAQSDEEQSGKEPPEKDDVLVILAEDNSTLLNNNQTMYDPSSEEKESDKPKFNLLETYLPLFIFVLDLPTEDRETLKAYVKDKTYEKLKYVIDSKVKMNRNEKNVLGRINESLVQSIDNLEHFDEITVDVVNGYHNASVYNAIRSVWLKQLRPFLPLIDQMAIQQKSSETEKMSIWARLWENLSVWMYGKKKLNECYAMEPKCVRHALELLNFEQRIDLDLAAYENKFDSVDGIIRERLGENRKSSELDEWLHRNRPPKALQAILDERSDIEEEALQRLRDNGVLSSLKHYYKAVIESRSHEEQEDIRHFFDIMNDTFARCFDPLRGQYHDF”, for which the “soluble on expression in E. coli” value is reported as “not soluble”.

As for “MGHHHHHHSHMANSMANSMGITTLDDPLGHMPERFDAFICYCPSDIQFVQEMIRQLEQTNYRLKLCVSDRDVLPGTCVWSIASELIEKRCRRMVVVVSDDYLQSKECDFQTKFALSLSPGAHQKRLIPIKYKAMKKEFPSILRFITVCDYTNPCTKSWFWTRLAKALSLP”, the “soluble on expression in E. coli” value is given as “soluble”.

On to “SKLPKGTRSSVYFAQHPEKEPLPSRQEVKQTPVIMAKIKGPGPAKYLRPSCTGYIDHDISMFKAPAYTLHSRHSEKRMVCHSSPGPCYLLDPKITRFGMSSCPQVPMEERISNLRLNPTLASCQYYFEKIHPPGERRAPQYTFGYRRPYRVMDLNPAPNQYQMPLLLGPNTPVSRAAPCYSLASRDKNWFYKEDVAGGPGPTTYARPEPSIYQNRSPTYSMAKRFAYPLDLTPRPGPGSHEVQQVTVHKPHIPAFTMGIKHSLHLCPLVIDIRD”, for which the “soluble on expression in E. coli” value was “not soluble”.
